What was measured:
[1] = tested on: NCP147; assay: EMSA with NCP147; assay type: binding; conditions: 5 nM 147 bp fluorescein-labeled NCP, pH 7.5, 4 °C
Description: EMSAs were performed by mixing increasing amounts of MORC4 ATPase with 5 nM 147 bp fluorescein-labeled NCP in 25 mM Tris-HCl pH 7.5, 75 mM NaCl, 25 mM Tris-HCl pH 7.5, 0.005% Tween 20, and 10% glycerol buffer in a 12 μL reaction volume. Each sample was incubated at 4 °C for 5 min and then loaded onto a 5% native polyacrylamide gel. Electrophoresis was performed in 0.3× Tris-borate-EDTA (TBE) at 300 V for 90 min. Fluorescein fluorescence images were acquired with a Typhoon Phosphor Imager.

[2] = tested on: MORC4; assay: ATPase activity assay (EnzChek Phosphate Assay Kit); assay type: biochemical, human; set-up: Rate of ATP hydrolysis: unit not given here
Description: (§1) To determine whether MORC4 is catalytically active, we produced the ATPase domain of human MORC4 and examined its ability to hydrolyze ATP in enzymatic assays (Fig. 1a–c). Following incubation of the ATPase domain with ATP, 2-amino-6-mercapto-7-methylpurine ribonucleoside and nucleoside phosphorylase, the release of inorganic phosphate generated by the hydrolysis of ATP to ADP was monitored by measuring an increase in absorbance at 360 nm.
(§2) The ATPase assays were performed using the EnzChek Phosphate Assay Kit (Invitrogen, item # E6646). The reactions were carried out on 1.0 µM of MORC4 His-ATPase or ATPaseCW (WT and mutants), in the presence and absence of 1 µM 601 DNA or 50 µM of unmodified H3 or H3K4me3 peptide (aa 1–12 of H3) in a buffer containing 50 mM Tris-HCl (pH 7.5), 150 mM NaCl, 1 mM MgCl2, 0.1 mM sodium azide, 200 µM MESG, and 1 U of PNP. In assay with the nucleosome, 0.5 µM of MORC4 ATPaseCW and 0.5 µM NCP167 (Activemotif) were used. The reaction was started by adding 2 mM ATP to the mixture at room temperature, and the release of inorganic phosphate was monitored by measuring the absorbance at 360 nm on a Nanodrop 2000c spectrophotometer (Thermo Scientific). In the presence of inorganic phosphate, produced by the hydrolysis of ATP to ADP, MESG is enzymatically converted to ribose 1-phosphate and […] by PNP, resulting in a shift in the wavelength absorbance from 330 nm for MESG to 360 nm for the product. The rate of ATP self-hydrolysis was measured in parallel. Error was calculated as the S.D. of at least three separate experiments (two in Fig. 4j).

[3] = biological target: T1, MORC4 (Homo sapiens, UniProt Q8TE76); assay: as above; assay type: biochemical; set-up: Rate of ATP hydrolysis: unit not given here; conditions: Supp. Fig. 1
T1 construct: the ATPaseCW cassette (aa 29–486) of human MORC4 (Q8TE76); GST (cleaved yes); made in house; host or cells: E. coli Rosetta2 (DE3) pLysS or BL21 (DE3) RIL
T1 sequence (Q8TE76 1-937): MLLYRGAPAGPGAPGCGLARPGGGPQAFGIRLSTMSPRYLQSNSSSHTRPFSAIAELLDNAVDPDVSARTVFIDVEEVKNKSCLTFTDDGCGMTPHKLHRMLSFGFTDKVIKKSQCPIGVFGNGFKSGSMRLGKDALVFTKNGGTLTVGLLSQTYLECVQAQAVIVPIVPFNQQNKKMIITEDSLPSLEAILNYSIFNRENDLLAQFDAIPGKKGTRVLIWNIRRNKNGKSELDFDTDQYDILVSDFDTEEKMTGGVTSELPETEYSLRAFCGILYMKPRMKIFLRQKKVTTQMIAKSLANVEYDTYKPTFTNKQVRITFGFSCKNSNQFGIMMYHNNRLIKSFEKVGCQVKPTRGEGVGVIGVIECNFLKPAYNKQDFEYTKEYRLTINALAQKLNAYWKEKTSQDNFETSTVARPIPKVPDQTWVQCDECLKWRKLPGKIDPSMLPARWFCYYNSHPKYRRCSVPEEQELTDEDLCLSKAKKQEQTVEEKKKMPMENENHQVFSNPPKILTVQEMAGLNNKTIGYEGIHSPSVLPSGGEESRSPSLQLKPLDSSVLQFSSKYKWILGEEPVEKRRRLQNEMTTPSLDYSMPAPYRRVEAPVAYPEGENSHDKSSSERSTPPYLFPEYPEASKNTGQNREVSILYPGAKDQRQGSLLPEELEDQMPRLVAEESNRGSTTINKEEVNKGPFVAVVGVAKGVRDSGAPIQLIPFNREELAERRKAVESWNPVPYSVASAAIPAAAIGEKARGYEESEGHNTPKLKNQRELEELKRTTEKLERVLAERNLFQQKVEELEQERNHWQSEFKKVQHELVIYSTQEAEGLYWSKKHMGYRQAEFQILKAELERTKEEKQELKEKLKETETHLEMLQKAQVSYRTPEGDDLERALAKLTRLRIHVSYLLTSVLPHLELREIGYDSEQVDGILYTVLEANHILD
Description: as §1, §2

B1: ATPaseCW: ATPaseCW cassette (aa 29–486) of human MORC4 (Q8TE76) (protein)
chain: GIRLSTMSPRYLQSNSSSHTRPFSAIAELLDNAVDPDVSARTVFIDVEEVKNKSCLTFTDDGCGMTPHKLHRMLSFGFTDKVIKKSQCPIGVFGNGFKSGSMRLGKDALVFTKNGGTLTVGLLSQTYLECVQAQAVIVPIVPFNQQNKKMIITEDSLPSLEAILNYSIFNRENDLLAQFDAIPGKKGTRVLIWNIRRNKNGKSELDFDTDQYDILVSDFDTEEKMTGGVTSELPETEYSLRAFCGILYMKPRMKIFLRQKKVTTQMIAKSLANVEYDTYKPTFTNKQVRITFGFSCKNSNQFGIMMYHNNRLIKSFEKVGCQVKPTRGEGVGVIGVIECNFLKPAYNKQDFEYTKEYRLTINALAQKLNAYWKEKTSQDNFETSTVARPIPKVPDQTWVQCDECLKWRKLPGKIDPSMLPARWFCYYNSHPKYRRCSVPEEQELTDEDLCLSKAKKQE
modifications: left off: GST, end not stated, cleaved
[1]
  binding to NCP147 in EMSA: bound to NCP147
[2]; + H3K4me3 + 601 DNA, Fig. 1c, mean of 3
  Rate of ATP hydrolysis: 0.3353
[2]; + H3K4me3 + 601 DNA, Fig. 1c, replicate 1
  Rate of ATP hydrolysis: 0.3507
[2]; + H3K4me3 + 601 DNA, Fig. 1c, replicate 2
  Rate of ATP hydrolysis: 0.3597
[2]; + H3K4me3 + 601 DNA, Fig. 1c, replicate 3
  Rate of ATP hydrolysis: 0.2954
[2]; + H3un + 601 DNA, Fig. 1c, mean of 3
  Rate of ATP hydrolysis: 0.3154
[2]; + H3un + 601 DNA, Fig. 1c, replicate 1
  Rate of ATP hydrolysis: 0.2842
[2]; + H3un + 601 DNA, Fig. 1c, replicate 2
  Rate of ATP hydrolysis: 0.3368
[2]; + H3un + 601 DNA, Fig. 1c, replicate 3
  Rate of ATP hydrolysis: 0.3251
[2]; no DNA, no peptide, 1.0 µM protein, 2 mM ATP, pH 7.5, room temperature, absorbance 360 nm, Fig. 1b,c, mean
  Rate of ATP hydrolysis: 0.09309
[2]; no DNA, no peptide, Fig. 1b,c, replicate 1
  Rate of ATP hydrolysis: 0.08409
[2]; no DNA, no peptide, Fig. 1b,c, replicate 2
  Rate of ATP hydrolysis: 0.08589
[2]; no DNA, no peptide, Fig. 1b,c, replicate 3
  Rate of ATP hydrolysis: 0.1093
[3]; 0.5 µM MORC4 ATPaseCW + 0.5 µM NCP167, mean of 3
  Rate of ATP hydrolysis: 0.468
[3]; 0.5 µM MORC4 ATPaseCW + 0.5 µM NCP167, replicate 1
  Rate of ATP hydrolysis: 0.5696
[3]; 0.5 µM MORC4 ATPaseCW + 0.5 µM NCP167, replicate 2
  Rate of ATP hydrolysis: 0.408
[3]; 0.5 µM MORC4 ATPaseCW + 0.5 µM NCP167, replicate 3
  Rate of ATP hydrolysis: 0.4265
[3]; 0.5 µM MORC4 ATPaseCW, without NCP167, mean of 3
  Rate of ATP hydrolysis: 0.2339
[3]; 0.5 µM MORC4 ATPaseCW, without NCP167, replicate 1
  Rate of ATP hydrolysis: 0.309
[3]; 0.5 µM MORC4 ATPaseCW, without NCP167, replicate 2
  Rate of ATP hydrolysis: 0.1285
[3]; 0.5 µM MORC4 ATPaseCW, without NCP167, replicate 3
  Rate of ATP hydrolysis: 0.2641

— paper PMC7596504, “Molecular mechanism of the MORC4 ATPase activation” (Nature Communications, 2020)
